Results published in US20110166062A1 (INDIANA UNIVERSITY RESEARCH AND TECHNOLOGY, published 2011).
Bridges are numbered along the chain shown (N, C = ends). Where no end group is shown, it is not given here.

T1: GIP receptor (UniProt P48546 22-466)
T1 sequence (looked up): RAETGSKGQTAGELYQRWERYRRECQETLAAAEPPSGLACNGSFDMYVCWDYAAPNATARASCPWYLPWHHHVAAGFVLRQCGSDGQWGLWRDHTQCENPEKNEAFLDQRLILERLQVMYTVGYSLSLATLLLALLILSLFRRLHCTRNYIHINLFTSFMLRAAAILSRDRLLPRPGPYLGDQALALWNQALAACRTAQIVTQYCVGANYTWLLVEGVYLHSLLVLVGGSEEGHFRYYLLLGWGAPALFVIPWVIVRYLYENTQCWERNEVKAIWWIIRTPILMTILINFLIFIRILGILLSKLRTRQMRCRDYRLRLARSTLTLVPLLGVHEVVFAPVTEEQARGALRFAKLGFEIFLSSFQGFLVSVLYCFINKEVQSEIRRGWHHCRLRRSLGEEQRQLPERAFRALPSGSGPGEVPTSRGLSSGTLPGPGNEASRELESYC


Experiments:
GLP-1 receptor = GLP-1 receptor (UniProt P43220 24-463, limits assumed); assay: cell-based or functional assay
GIP receptor = target: T1, GIP receptor; assay: cell-based or functional assay

| Binder | EC50 (GLP-1 receptor) [nM] | EC50 (GIP receptor) [nM] | relative activity (GIP receptor) [%] | relative activity (GLP-1 receptor) [%] |
| --- | --- | --- | --- | --- |
| HSQGTFTSDYSKYLDEIHQKEFIAWLMNT-NH2 (lactam 16-20; N-terminus assumed; SMILES CC[C@H](C)[C@H](NC(=O)[C@H](Cc1ccccc1)NC(=O)[C@H](CCC(=O)O)NC(=O)[C@@H]1CCCCNC(=O)CC[C@H](NC(=O)[C@H](CC(=O)O)NC(=O)[C@H](CC(C)C)NC(=O)[C@H](Cc2ccc(O)cc2)NC(=O)[C@H](CCCCN)NC(=O)[C@H](CO)NC(=O)[C@H](Cc2ccc(O)cc2)NC(=O)[C@H](CC(=O)O)NC(=O)[C@H](CO)NC(=O)[C@@H](NC(=O)[C@H](Cc2ccccc2)NC(=O)[C@@H](NC(=O)CNC(=O)[C@H](CCC(N)=O)NC(=O)[C@H](CO)NC(=O)[C@@H](N)Cc2c[nH]cn2)[C@@H](C)O)[C@@H](C)O)C(=O)N[C@@H]([C@@H](C)CC)C(=O)N[C@@H](Cc2c[nH]cn2)C(=O)N[C@@H](CCC(N)=O)C(=O)N1)C(=O)N[C@@H](C)C(=O)N[C@@H](Cc1c[nH]c2ccccc12)C(=O)N[C@@H](CC(C)C)C(=O)N[C@@H](CCSC)C(=O)N[C@@H](CC(N)=O)C(=O)N[C@H](C(N)=O)[C@@H](C)O) [mt-61] | 0.18 | 9.99 |  |  |
| YSQGTFTSDYSKYLDEQAAKEFVNWLLAGGPSSGAPPPS-NH2 (lactam 16-20; N-terminus assumed; SMILES CC(C)C[C@H](NC(=O)[C@H](CC(C)C)NC(=O)[C@H](Cc1c[nH]c2ccccc12)NC(=O)[C@H](CC(N)=O)NC(=O)[C@@H](NC(=O)[C@H](Cc1ccccc1)NC(=O)[C@H](CCC(=O)O)NC(=O)[C@@H]1CCCCNC(=O)CC[C@H](NC(=O)[C@H](CC(=O)O)NC(=O)[C@H](CC(C)C)NC(=O)[C@H](Cc2ccc(O)cc2)NC(=O)[C@H](CCCCN)NC(=O)[C@H](CO)NC(=O)[C@H](Cc2ccc(O)cc2)NC(=O)[C@H](CC(=O)O)NC(=O)[C@H](CO)NC(=O)[C@@H](NC(=O)[C@H](Cc2ccccc2)NC(=O)[C@@H](NC(=O)CNC(=O)[C@H](CCC(N)=O)NC(=O)[C@H](CO)NC(=O)[C@@H](N)Cc2ccc(O)cc2)[C@@H](C)O)[C@@H](C)O)C(=O)N[C@@H](CCC(N)=O)C(=O)N[C@@H](C)C(=O)N[C@@H](C)C(=O)N1)C(C)C)C(=O)N[C@@H](C)C(=O)NCC(=O)NCC(=O)N1CCC[C@H]1C(=O)N[C@@H](CO)C(=O)N[C@@H](CO)C(=O)NCC(=O)N[C@@H](C)C(=O)N1CCC[C@H]1C(=O)N1CCC[C@H]1C(=O)N1CCC[C@H]1C(=O)N[C@@H](CO)C(N)=O) [mt-127] | 0.055 | 0.518 |  |  |
| YAPGTFISDYSIAMDKIHQQDFVNWLLAQKGKKNWLKHNITQ-NH2 [mt-101] |  | 71.3 | 0.06 |  |
| HSQGTFTSDYSKYLDEIHQKEFIAWLMNT-NH2 (lactam 12-16; N-terminus assumed; SMILES CC[C@H](C)[C@H](NC(=O)[C@H](Cc1ccccc1)NC(=O)[C@H](CCC(=O)O)NC(=O)[C@H](CCCCN)NC(=O)[C@H](CCC(N)=O)NC(=O)[C@H](Cc1c[nH]cn1)NC(=O)[C@@H](NC(=O)[C@@H]1CCC(=O)NCCCC[C@H](NC(=O)[C@H](CO)NC(=O)[C@H](Cc2ccc(O)cc2)NC(=O)[C@H](CC(=O)O)NC(=O)[C@H](CO)NC(=O)[C@@H](NC(=O)[C@H](Cc2ccccc2)NC(=O)[C@@H](NC(=O)CNC(=O)[C@H](CCC(N)=O)NC(=O)[C@H](CO)NC(=O)[C@@H](N)Cc2c[nH]cn2)[C@@H](C)O)[C@@H](C)O)C(=O)N[C@@H](Cc2ccc(O)cc2)C(=O)N[C@@H](CC(C)C)C(=O)N[C@@H](CC(=O)O)C(=O)N1)[C@@H](C)CC)C(=O)N[C@@H](C)C(=O)N[C@@H](Cc1c[nH]c2ccccc12)C(=O)N[C@@H](CC(C)C)C(=O)N[C@@H](CCSC)C(=O)N[C@@H](CC(N)=O)C(=O)N[C@H](C(N)=O)[C@@H](C)O) [mt-63] | 0.31 |  |  |  |
| YAEGTFTSDYSIYMDEQAAKEFVNWLLAGGPSSGAPPPS-NH2 (lactam 16-20; N-terminus assumed; SMILES CC[C@H](C)[C@H](NC(=O)[C@H](CO)NC(=O)[C@H](Cc1ccc(O)cc1)NC(=O)[C@H](CC(=O)O)NC(=O)[C@H](CO)NC(=O)[C@@H](NC(=O)[C@H](Cc1ccccc1)NC(=O)[C@@H](NC(=O)CNC(=O)[C@H](CCC(=O)O)NC(=O)[C@H](C)NC(=O)[C@@H](N)Cc1ccc(O)cc1)[C@@H](C)O)[C@@H](C)O)C(=O)N[C@@H](Cc1ccc(O)cc1)C(=O)N[C@@H](CCSC)C(=O)N[C@@H](CC(=O)O)C(=O)N[C@H]1CCC(=O)NCCCC[C@@H](C(=O)N[C@@H](CCC(=O)O)C(=O)N[C@@H](Cc2ccccc2)C(=O)N[C@H](C(=O)N[C@@H](CC(N)=O)C(=O)N[C@@H](Cc2c[nH]c3ccccc23)C(=O)N[C@@H](CC(C)C)C(=O)N[C@@H](CC(C)C)C(=O)N[C@@H](C)C(=O)NCC(=O)NCC(=O)N2CCC[C@H]2C(=O)N[C@@H](CO)C(=O)N[C@@H](CO)C(=O)NCC(=O)N[C@@H](C)C(=O)N2CCC[C@H]2C(=O)N2CCC[C@H]2C(=O)N2CCC[C@H]2C(=O)N[C@@H](CO)C(N)=O)C(C)C)NC(=O)[C@H](C)NC(=O)[C@H](C)NC(=O)[C@H](CCC(N)=O)NC1=O) [mt-142] | 0.041 | 0.132 | 36.4 | 163 |
| HSQGTFTSDYSKYLDKIHQEEFIAWLMNT-NH2 [mt-68] | 0.82 |  |  |  |
| YSQGTFTSDYSKYLDEQAAKEFIAWLLAGGPSSGAPPPS-NH2 (lactam 16-20; N-terminus assumed; SMILES CC[C@H](C)[C@H](NC(=O)[C@H](Cc1ccccc1)NC(=O)[C@H](CCC(=O)O)NC(=O)[C@@H]1CCCCNC(=O)CC[C@H](NC(=O)[C@H](CC(=O)O)NC(=O)[C@H](CC(C)C)NC(=O)[C@H](Cc2ccc(O)cc2)NC(=O)[C@H](CCCCN)NC(=O)[C@H](CO)NC(=O)[C@H](Cc2ccc(O)cc2)NC(=O)[C@H](CC(=O)O)NC(=O)[C@H](CO)NC(=O)[C@@H](NC(=O)[C@H](Cc2ccccc2)NC(=O)[C@@H](NC(=O)CNC(=O)[C@H](CCC(N)=O)NC(=O)[C@H](CO)NC(=O)[C@@H](N)Cc2ccc(O)cc2)[C@@H](C)O)[C@@H](C)O)C(=O)N[C@@H](CCC(N)=O)C(=O)N[C@@H](C)C(=O)N[C@@H](C)C(=O)N1)C(=O)N[C@@H](C)C(=O)N[C@@H](Cc1c[nH]c2ccccc12)C(=O)N[C@@H](CC(C)C)C(=O)N[C@@H](CC(C)C)C(=O)N[C@@H](C)C(=O)NCC(=O)NCC(=O)N1CCC[C@H]1C(=O)N[C@@H](CO)C(=O)N[C@@H](CO)C(=O)NCC(=O)N[C@@H](C)C(=O)N1CCC[C@H]1C(=O)N1CCC[C@H]1C(=O)N1CCC[C@H]1C(=O)N[C@@H](CO)C(N)=O) [mt-139] | 0.142 | 0.569 |  |  |
| HSQGTFTSDYSKYLDKIHQEEFIAWLMNT-NH2 (lactam 16-20; N-terminus assumed; SMILES CC[C@H](C)[C@H](NC(=O)[C@H](Cc1ccccc1)NC(=O)[C@H](CCC(=O)O)NC(=O)[C@@H]1CCC(=O)NCCCC[C@H](NC(=O)[C@H](CC(=O)O)NC(=O)[C@H](CC(C)C)NC(=O)[C@H](Cc2ccc(O)cc2)NC(=O)[C@H](CCCCN)NC(=O)[C@H](CO)NC(=O)[C@H](Cc2ccc(O)cc2)NC(=O)[C@H](CC(=O)O)NC(=O)[C@H](CO)NC(=O)[C@@H](NC(=O)[C@H](Cc2ccccc2)NC(=O)[C@@H](NC(=O)CNC(=O)[C@H](CCC(N)=O)NC(=O)[C@H](CO)NC(=O)[C@@H](N)Cc2c[nH]cn2)[C@@H](C)O)[C@@H](C)O)C(=O)N[C@@H]([C@@H](C)CC)C(=O)N[C@@H](Cc2c[nH]cn2)C(=O)N[C@@H](CCC(N)=O)C(=O)N1)C(=O)N[C@@H](C)C(=O)N[C@@H](Cc1c[nH]c2ccccc12)C(=O)N[C@@H](CC(C)C)C(=O)N[C@@H](CCSC)C(=O)N[C@@H](CC(N)=O)C(=O)N[C@H](C(N)=O)[C@@H](C)O) [mt-69] | 0.41 | 14.6 | 0.57 |  |
| YAQGTFISDYSKYLDEQAAKEFVNWLLAGGPSSGAPPPS-NH2 (lactam 16-20; N-terminus assumed; SMILES CC[C@H](C)[C@H](NC(=O)[C@H](Cc1ccccc1)NC(=O)[C@@H](NC(=O)CNC(=O)[C@H](CCC(N)=O)NC(=O)[C@H](C)NC(=O)[C@@H](N)Cc1ccc(O)cc1)[C@@H](C)O)C(=O)N[C@@H](CO)C(=O)N[C@@H](CC(=O)O)C(=O)N[C@@H](Cc1ccc(O)cc1)C(=O)N[C@@H](CO)C(=O)N[C@@H](CCCCN)C(=O)N[C@@H](Cc1ccc(O)cc1)C(=O)N[C@@H](CC(C)C)C(=O)N[C@@H](CC(=O)O)C(=O)N[C@H]1CCC(=O)NCCCC[C@@H](C(=O)N[C@@H](CCC(=O)O)C(=O)N[C@@H](Cc2ccccc2)C(=O)N[C@H](C(=O)N[C@@H](CC(N)=O)C(=O)N[C@@H](Cc2c[nH]c3ccccc23)C(=O)N[C@@H](CC(C)C)C(=O)N[C@@H](CC(C)C)C(=O)N[C@@H](C)C(=O)NCC(=O)NCC(=O)N2CCC[C@H]2C(=O)N[C@@H](CO)C(=O)N[C@@H](CO)C(=O)NCC(=O)N[C@@H](C)C(=O)N2CCC[C@H]2C(=O)N2CCC[C@H]2C(=O)N2CCC[C@H]2C(=O)N[C@@H](CO)C(N)=O)C(C)C)NC(=O)[C@H](C)NC(=O)[C@H](C)NC(=O)[C@H](CCC(N)=O)NC1=O) [mt-145] | 9.94 | 1.09 |  |  |
